Values quoted from earlier work, collected in US8759488B2, “High stability streptavidin mutant proteins” (Isis Innovation Limited, priority 2009, dated 2014).
Where “and” joins values, the source holds several entries; their conditions need not be identical. Equal values may be shown once.

B1: monomeric streptavidin: streptavidin subunit unable to tetramerise, e.g. with mutations T76R, V125R, V55T and L109T (protein)
chain: DPSKDSKAQVSAAEAGITGTWYNQLGSTFIVTAGADGALTGTYESAVGNAESRYTLTGRYDSAPATDGSGTALGWRVAWKNNYRNAHSATTWSGQYVGGAEARINTQWTLTSGTTEANAWKSTLRGHDTFTKVKPSAASIDAAKKAGVNNGNPLDAVQQ
biotin
  half life for biotin: approximately 3 minutes
Free biotin
  off rate of biotin: 0.0034 s⁻¹ and 0.0041 s⁻¹
